The target of assay [1] is Recombinant Human IL-13 (human, UniProt P35225 35-146, limits assumed). The experiment in a line: Biacore SPR. Put shortly:
(§1)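 Kinetic constants come from global 1:1 model fitting (Rmax local) at 0.8–100 nM antigen. Flow was 50 μl/min with 5 min association and 10 min dissociation. Capture used goat anti-mouse IgG Fcγ on a CM5 chip in HBS-EP+ at 25 °C.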
Target sequence in this assay (P35225 35-146 limits assumed): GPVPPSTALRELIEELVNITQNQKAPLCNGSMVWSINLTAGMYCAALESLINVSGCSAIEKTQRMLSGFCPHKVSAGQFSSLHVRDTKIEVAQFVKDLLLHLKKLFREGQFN
For orientation: SPR reads the build-up and loss of mass on a sensor chip optically.

Assay [2] deals with T1, Recombinant Human TNF-α/TNFSF1A (human, UniProt P01375 77-233).
T1 construct: vendor reagent is named for Biacore; the neutralization assay says only huTNFα; also called huTNFα
The experiment in a line: Biacore SPR. Put shortly: as §1
T1 sequence (P01375 77-233 limits assumed): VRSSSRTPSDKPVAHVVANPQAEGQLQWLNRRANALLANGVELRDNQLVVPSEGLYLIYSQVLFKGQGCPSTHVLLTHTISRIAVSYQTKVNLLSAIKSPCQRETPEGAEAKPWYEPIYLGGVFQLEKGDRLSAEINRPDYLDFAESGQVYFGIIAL

Assay [3] has as its target T1, Recombinant Human TNF-α/TNFSF1A. The experiment in a line: cell-based or functional assay.
For the next assay, the target named is Recombinant Human β-NGF (human, UniProt P01138 122-241). The experiment in a line: cell-based or functional assay.
Assay [4] deals with Recombinant Human IL-13 (human, UniProt P35225 35-146, limits assumed). The experiment in a line: cell-based or functional assay.
Target sequence in this assay (P35225 35-146 limits assumed): as the sequence (P35225 35-146 limits assumed) above
Assay [5] deals with T2, Recombinant Human TNF-α/TNFSF1A (human, UniProt P01375 77-233).
T2 construct: also called huTNFα
The experiment in a line: SPR (Biacore).
T2 sequence (P01375 77-233 limits assumed): as the sequence (P01375 77-233 limits assumed) above

Sequence of Recombinant Human β-NGF (P01138 122-241 limits assumed): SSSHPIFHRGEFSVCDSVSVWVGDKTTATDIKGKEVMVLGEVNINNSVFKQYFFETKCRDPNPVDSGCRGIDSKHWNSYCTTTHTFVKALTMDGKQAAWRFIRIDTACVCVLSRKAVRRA

B1: DVD3169 (bispecific antibody, IgG1)
VH: EVQLVQSGAEVKKPGASVKVSCKASGYTFTSYWMHWVRQAPGQGLEWIGNINPKGGSNIYNEKFQGRVTMTRDTSISTAYMELSRLRSDDTAVYYCARLDYFGDSFDLWGQGTTVTVSSASTKGPEVQLVQSGAEVKKPGASVKVSCKASGYTFANYGIIWVRQAPGQGLEWMGWINTYTGKPTYAQKFQGRVTMTTDTSTSTAYMELSSLRSEDTAVYYCARKLFTTMDVTDNAMDYWGQGTTVTVSS
VL: DIQMTQSPSSLSASVGDRVTITCRASQGIRNYLNWYQQKPGKAPKLLIYYASNLEVGVPSRFSGSGSGTDYTLTISSLQPEDFATYYCQQDNRFPYTFGGGTKVEIKRTVAAPDIQMTQSPSSLSASVGDRVTITCRASQDISQYLNWYQQKPGKAPKLLIYYTSRLQSGVPSRFSGSGSGTDFTLTISSLQPEDFATYFCQQGNTWPPTFGQGTKLEIKR
notes: DVD-Ig; wt hIgG1 + kappa constants
As a reminder, the Kd is a measure of binding affinity in units of concentration. Usually koff stands for a measure of how fast the partners let go of each other. As usually defined, the kon is the second-order rate constant of association. With B1, in the assay with Recombinant Human IL-13 [1], the Kd amounted to 10 pM, the koff was 2e-05 s⁻¹ and the kon worked out at 1.9e+06 M⁻¹ s⁻¹. Further, in assay [2], the dissociation constant (Kd) was less than 1.5 pM, the koff was less than 1e-06 s⁻¹ and the kon turned out to be 650000 M⁻¹ s⁻¹. Besides, the “C-Terminal VD huTNFα Neutralization Assay IC50” value in assay [3] came out at 169 pM.

B2: DVD3046 (bispecific antibody, IgG1)
VH: EVQLVESGGGLVQPGGSLRLSCAASGFSLTNNNVNWVRQAPGKGLEWVGGVWAGGATDYNSALKSRFTISRDNSKNTAYLQMNSLRAEDTAVYYCARDGGYSSSTLYAMDAWGQGTLVTVSSASTKGPEVQLVQSGAEVKKPGASVKVSCKASGYTFNNYGIIWVRQAPGQGLEWMGWINTYTGKPTYAQKFQGRVTMTTDTSTSTAYMELSSLRSEDTAVYYCARKLFNTVAVTDNAMDYWGQGTTVTVSS
VL: DIQMTQSPSSLSASVGDRVTITCRASEDIYNALAWYQQKPGKAPKLLIYNTDTLHTGVPSRFSGSGSGTDYTLTISSLQPEDFATYFCQHYFHYPRTFGQGTKVEIKRTVAAPSVFIFPPDIQMTQSPSSLSASVGDRVTITCRASQDIENYLNWYQQKPGKAPKLLIYYTSRLQSGVPSRFSGSGSGTDFTLTISSLQPEDFATYFCQQGNTQPPTFGQGTKLEIKR
As to B2, in assay [3], the “C-Terminal VD huTNFα Neutralization Assay IC50” value is 50 pM. For the same molecule, the “N-Terminal VD NGF Neutralization Assay IC50” value in the assay with Recombinant Human β-NGF worked out at 145 pM.

B3: AB441 (antibody, V domains shown)
VH: EVQLVQSGAEVKKPGASVKVSCKASGYTFANYGIIWVRQAPGQGLEWMGWINTYTGKPTYAQKFQGRVTMTTDTSTSTAYMELSSLRSEDTAVYYCARKLFTTMDVTDNAMDYWGQGTTVTVSS
VL: DIQMTQSPSSLSASVGDRVTITCRASQDISQYLNWYQQKPGKAPKLLIYYTSRLQSGVPSRFSGSGSGTDFTLTISSLQPEDFATYFCQQGNTWPPTFGQGTKLEIKR
notes: parent antibody
Consider B3, for which, in assay [2], the Kd was 2.4 pM, the koff was 1.8e-05 s⁻¹ and the kon is 7.5e+06 M⁻¹ s⁻¹. For the same molecule, the “huTNFα Neutralization Assay IC50” value in assay [3] was 37 pM.

B4: DVD3168 (bispecific antibody, human IgG1, kappa)
heavy: not shown
light: DIQMTQSPSSLSASVGDRVTITCRASQGIRNYLNWYQQKPGKAPKLLIYYASNLEVGVPSRFSGSGSGTDYTLTISSLQPEDFATYYCQQDNRFPYTFGGGTKVEIKRGGSGGGGSGDIQMTQSPSSLSASVGDRVTITCRASQDISQYLNWYQQKPGKAPKLLIYYTSRLQSGVPSRFSGSGSGTDFTLTISSLQPEDFATYFCQQGNTWPPTFGQGTKLEIKRTVAAPSVFIFPPSDEQLKSGTASVVCLLNNFYPREAKVQWKVDNALQSGNSQESVTEQDSKDSTYSLSSTLTLSKADYEKHKVYACEVTHQGLSSPVTKSFNRGEC
notes: DVD-Ig: outer AB399 (IL-13), inner AB441 (TNF); linkers GS-H10/GS-L10; also called DVD3168H; DVD3168L
B4: the “IL-13 Neutralization Assay IC50” value in the assay with Recombinant Human IL-13 [4] is 81 pM. In addition, the binding result in assay [5] was “binds”.

B5: DVD3168 (bispecific antibody, IgG1)
VH: EVQLVQSGAEVKKPGASVKVSCKASGYTFTSYWMHWVRQAPGQGLEWIGNINPKGGSNIYNEKFQGRVTMTRDTSISTAYMELSRLRSDDTAVYYCARLDYFGDSFDLWGQGTTVTVSSGGGGSGGGGSEVQLVQSGAEVKKPGASVKVSCKASGYTFANYGIIWVRQAPGQGLEWMGWINTYTGKPTYAQKFQGRVTMTTDTSTSTAYMELSSLRSEDTAVYYCARKLFTTMDVTDNAMDYWGQGTTVTVSS
VL: DIQMTQSPSSLSASVGDRVTITCRASQGIRNYLNWYQQKPGKAPKLLIYYASNLEVGVPSRFSGSGSGTDYTLTISSLQPEDFATYYCQQDNRFPYTFGGGTKVEIKRGGSGGGGSGDIQMTQSPSSLSASVGDRVTITCRASQDISQYLNWYQQKPGKAPKLLIYYTSRLQSGVPSRFSGSGSGTDFTLTISSLQPEDFATYFCQQGNTWPPTFGQGTKLEIKR
notes: as for B1
For the molecule B5, in the assay with Recombinant Human IL-13 [1], the Kd was determined as 64 pM, the koff is 7.4e-05 s⁻¹ and the kon was determined as 1.1e+06 M⁻¹ s⁻¹. In assay [2], the Kd is 45 pM, the koff worked out at 3.6e-05 s⁻¹ and the kon amounted to 800000 M⁻¹ s⁻¹. In addition, the “C-Terminal VD huTNFα Neutralization Assay IC50” value in assay [3] came out at 146 pM.

B6: DVD3107 (bispecific antibody, IgG1)
VH: EVQLVQSGAEVKKPGASVKVSCKASGYTFANYGIIWVRQAPGQGLEWMGWINTYTGKPTYAQKFQGRVTMTTDTSTSTAYMELSSLRSEDTAVYYCARKLFTTMDVTDNAMDYWGQGTTVTVSSASTKGPSVFPLAPEVQLVQSGAEVKKPGASVKVSCKASGYTFTTYGVSWVRQAPGQGLEWMGEIYPGNYNTYYNEKFRGRVTMTTDTSTSTAYMELRSLRSDDTAVYYCARWRTSYFSDYGYFDYWGQGTTVTVSS
VL: DIQMTQSPSSLSASVGDRVTITCRASQDISQYLNWYQQKPGKAPKLLIYYTSRLQSGVPSRFSGSGSGTDFTLTISSLQPEDFATYFCQQGNTWPPTFGQGTKLEIKRTVAAPDVVMTQSPLSLPVTLGQPASISCRSSQSLVHSHGNTYLHWYQQRPGQSPRLLIYTVSNRFSGVPDRFSGSGSGTDFTLKISRVEAEDVGVYYCSQSTHVPYTFGGGTKVEIKR
notes: as for B1
As for B6, in the assay with Recombinant Human IL-13 [1], the Kd was determined as 87 pM, the koff stood at 7e-05 s⁻¹ and the kon stood at 810000 M⁻¹ s⁻¹. In assay [2], the Kd came out at 53 pM, the dissociation rate constant (koff) worked out at 0.00015 s⁻¹ and the kon stood at 2.8e+06 M⁻¹ s⁻¹. For the same molecule, in assay [3], the “N-Terminal VD huTNFα Neutralization Assay IC50” value worked out at 15 pM.

B7: DVD3164 (bispecific antibody, IgG1)
VH: EVQLVQSGAEVKKPGASVKVSCKASGYTFANYGIIWVRQAPGQGLEWMGWINTYTGKPTYAQKFQGRVTMTTDTSTSTAYMELSSLRSEDTAVYYCARKLFTTMDVTDNAMDYWGQGTTVTVSSASTKGPEVQLVQSGAEVKKPGASVKVSCKASGYTFTSYWMHWVRQAPGQGLEWIGNINPKGGSNIYNEKFQGRVTMTRDTSISTAYMELSRLRSDDTAVYYCARLDYFGDSFDLWGQGTTVTVSS
VL: DIQMTQSPSSLSASVGDRVTITCRASQDISQYLNWYQQKPGKAPKLLIYYTSRLQSGVPSRFSGSGSGTDFTLTISSLQPEDFATYFCQQGNTWPPTFGQGTKLEIKRTVAAPDIQMTQSPSSLSASVGDRVTITCRASQGIRNYLNWYQQKPGKAPKLLIYYASNLEVGVPSRFSGSGSGTDYTLTISSLQPEDFATYYCQQDNRFPYTFGGGTKVEIKR
notes: as for B1
In the case of B7, in the assay with Recombinant Human IL-13 [1], the Kd is 870 pM, the koff was 4.8e-05 s⁻¹ and the kon was 55000 M⁻¹ s⁻¹. Besides, in assay [2], the Kd worked out at 16 pM, the koff was found to be 6.5e-05 s⁻¹ and the kon was determined as 4e+06 M⁻¹ s⁻¹. For the same molecule, the “N-Terminal VD huTNFα Neutralization Assay IC50” value in assay [3] worked out at 21 pM.

B8: DVD3166 (bispecific antibody, IgG1)
VH: B7 VH
VL: DIQMTQSPSSLSASVGDRVTITCRASQDISQYLNWYQQKPGKAPKLLIYYTSRLQSGVPSRFSGSGSGTDFTLTISSLQPEDFATYFCQQGNTWPPTFGQGTKLEIKRTVAAPSVFIFPPDIQMTQSPSSLSASVGDRVTITCRASQGIRNYLNWYQQKPGKAPKLLIYYASNLEVGVPSRFSGSGSGTDYTLTISSLQPEDFATYYCQQDNRFPYTFGGGTKVEIKR
notes: as for B1
Turning to B8, in the assay with Recombinant Human IL-13 [1], the Kd is 180 pM, the koff turned out to be 5.1e-05 s⁻¹ and the kon came to 280000 M⁻¹ s⁻¹. Further, in assay [2], the Kd came out at 27 pM, the koff was 0.00013 s⁻¹ and the kon amounted to 4.7e+06 M⁻¹ s⁻¹. Besides, in assay [3], the “N-Terminal VD huTNFα Neutralization Assay IC50” value stood at 16 pM.

B9: DVD3163 (bispecific antibody, IgG1)
VH: EVQLVQSGAEVKKPGASVKVSCKASGYTFANYGIIWVRQAPGQGLEWMGWINTYTGKPTYAQKFQGRVTMTTDTSTSTAYMELSSLRSEDTAVYYCARKLFTTMDVTDNAMDYWGQGTTVTVSSGGGGSGGGGSEVQLVQSGAEVKKPGASVKVSCKASGYTFTSYWMHWVRQAPGQGLEWIGNINPKGGSNIYNEKFQGRVTMTRDTSISTAYMELSRLRSDDTAVYYCARLDYFGDSFDLWGQGTTVTVSS
VL: DIQMTQSPSSLSASVGDRVTITCRASQDISQYLNWYQQKPGKAPKLLIYYTSRLQSGVPSRFSGSGSGTDFTLTISSLQPEDFATYFCQQGNTWPPTFGQGTKLEIKRGGSGGGGSGDIQMTQSPSSLSASVGDRVTITCRASQGIRNYLNWYQQKPGKAPKLLIYYASNLEVGVPSRFSGSGSGTDYTLTISSLQPEDFATYYCQQDNRFPYTFGGGTKVEIKR
notes: as for B1
As for B9, in the assay with Recombinant Human IL-13 [1], the Kd turned out to be 610 pM, the koff amounted to 8.4e-05 s⁻¹ and the kon came to 140000 M⁻¹ s⁻¹. Also, in assay [2], the Kd came out at 3.9 pM, the koff was 5e-05 s⁻¹ and the kon was determined as 1.3e+07 M⁻¹ s⁻¹. Also, in assay [3], the “N-Terminal VD huTNFα Neutralization Assay IC50” value was 15 pM.

B10: DVD3106 (bispecific antibody, IgG1)
VH: EVQLVQSGAEVKKPGASVKVSCKASGYTFANYGIIWVRQAPGQGLEWMGWINTYTGKPTYAQKFQGRVTMTTDTSTSTAYMELSSLRSEDTAVYYCARKLFTTMDVTDNAMDYWGQGTTVTVSSASTKGPEVQLVQSGAEVKKPGASVKVSCKASGYTFTTYGVSWVRQAPGQGLEWMGEIYPGNYNTYYNEKFRGRVTMTTDTSTSTAYMELRSLRSDDTAVYYCARWRTSYFSDYGYFDYWGQGTTVTVSS
VL: DIQMTQSPSSLSASVGDRVTITCRASQDISQYLNWYQQKPGKAPKLLIYYTSRLQSGVPSRFSGSGSGTDFTLTISSLQPEDFATYFCQQGNTWPPTFGQGTKLEIKRTVAAPSVFIFPPDVVMTQSPLSLPVTLGQPASISCRSSQSLVHSHGNTYLHWYQQRPGQSPRLLIYTVSNRFSGVPDRFSGSGSGTDFTLKISRVEAEDVGVYYCSQSTHVPYTFGGGTKVEIKR
notes: as for B1
For the molecule B10, in the assay with Recombinant Human IL-13 [1], the dissociation constant Kd turned out to be 110 pM, the koff was determined as 6.4e-05 s⁻¹ and the kon came out at 570000 M⁻¹ s⁻¹. Besides, in assay [2], the Kd was found to be 22 pM, the off-rate (koff) is 8.5e-05 s⁻¹ and the association rate constant (kon) amounted to 3.9e+06 M⁻¹ s⁻¹. Moreover, in assay [3], the “N-Terminal VD huTNFα Neutralization Assay IC50” value came to 18 pM.

The values above are taken from patent US20140271457A1 (AbbVie / Abbott, published 2014).
